Data from paper PMC5665175 (Immunity, 2017).
Where a chain is given by its changes, count along the chain named. Names and notes keep the numbering of the source.

B1: 6xHis-Sumo-Imd(3-273) (domain or fragment, D. melanogaster, UniProt Q7K4Z4 3-273, looked up)
chain: KLRNLLPTIFGGKEAQNPTPVEGRLEKDAAPVDDNEPDNNNSGALALPSTAGTPTASSDLTESVLRELSDPNYNSMDVVHSANIPGTLSNVQTNNTMNVHSAQQQVVMNFSNANNLHFGSVYNFNQNLSACSSRKGSTSTAEESVASPDGKPRASATRKTVSIVAMMQSQEEPDVRLLDVVSTHLGEGWKQVMRDLGMSEGQIDQAIIDHQMHGNIREVIYQLLLQWIRSSADGVATVGRLTTLLWESQHRDCVQRMKLVWKALEKRKTNS
B2: 6xHis-Sumo-Imd(31-167) (domain or fragment, D. melanogaster, UniProt Q7K4Z4 31-167, looked up)
chain: AAPVDDNEPDNNNSGALALPSTAGTPTASSDLTESVLRELSDPNYNSMDVVHSANIPGTLSNVQTNNTMNVHSAQQQVVMNFSNANNLHFGSVYNFNQNLSACSSRKGSTSTAEESVASPDGKPRASATRKTVSIVA
B3: 6xHis-Sumo-Imd(31-273) Δ76-109 (domain or fragment, D. melanogaster, UniProt Q7K4Z4 31-273, looked up)
chain: AAPVDDNEPDNNNSGALALPSTAGTPTASSDLTESVLRELSDPNYMNFSNANNLHFGSVYNFNQNLSACSSRKGSTSTAEESVASPDGKPRASATRKTVSIVAMMQSQEEPDVRLLDVVSTHLGEGWKQVMRDLGMSEGQIDQAIIDHQMHGNIREVIYQLLLQWIRSSADGVATVGRLTTLLWESQHRDCVQRMKLVWKALEKRKTNS
B4: 6xHis-Sumo-Imd(31-273) (domain or fragment, D. melanogaster, UniProt Q7K4Z4 31-273, looked up)
chain: AAPVDDNEPDNNNSGALALPSTAGTPTASSDLTESVLRELSDPNYNSMDVVHSANIPGTLSNVQTNNTMNVHSAQQQVVMNFSNANNLHFGSVYNFNQNLSACSSRKGSTSTAEESVASPDGKPRASATRKTVSIVAMMQSQEEPDVRLLDVVSTHLGEGWKQVMRDLGMSEGQIDQAIIDHQMHGNIREVIYQLLLQWIRSSADGVATVGRLTTLLWESQHRDCVQRMKLVWKALEKRKTNS
B5: 6xHis-Sumo-Imd(31-273) Δ114-121 (domain or fragment, D. melanogaster, UniProt Q7K4Z4 31-273, looked up)
chain: AAPVDDNEPDNNNSGALALPSTAGTPTASSDLTESVLRELSDPNYNSMDVVHSANIPGTLSNVQTNNTMNVHSAQQQVVMNFSSVYNFNQNLSACSSRKGSTSTAEESVASPDGKPRASATRKTVSIVAMMQSQEEPDVRLLDVVSTHLGEGWKQVMRDLGMSEGQIDQAIIDHQMHGNIREVIYQLLLQWIRSSADGVATVGRLTTLLWESQHRDCVQRMKLVWKALEKRKTNS
B6: 6xHis-Sumo-Imd(31-273) Δ144-177 (domain or fragment, D. melanogaster, UniProt Q7K4Z4 31-273, looked up)
chain: AAPVDDNEPDNNNSGALALPSTAGTPTASSDLTESVLRELSDPNYNSMDVVHSANIPGTLSNVQTNNTMNVHSAQQQVVMNFSNANNLHFGSVYNFNQNLSACSSRKGSTSTARLLDVVSTHLGEGWKQVMRDLGMSEGQIDQAIIDHQMHGNIREVIYQLLLQWIRSSADGVATVGRLTTLLWESQHRDCVQRMKLVWKALEKRKTNS
B7: 6xHis-Sumo-PGRP-LC(201-242) WT (domain or fragment, D. melanogaster, UniProt Q9GNK5 201-242, looked up)
chain: ATQGIGSIALTNSTDVTFGDKHFYEGPVTIQQFLIDNRDKWK
B8: 6xHis-Sumo-Imd(100-125) (domain or fragment, D. melanogaster, UniProt Q7K4Z4 100-125, looked up)
chain: NVHSAQQQVVMNFSNANNLHFGSVYN
B9: 6xHis-Sumo-PGRP-LC(201-242) D215A (domain or fragment, D. melanogaster, UniProt Q9GNK5 201-242, looked up)
chain: B7 chain with D15A
B10: 6xHis-Sumo-PGRP-LC(201-242) E225A (domain or fragment, D. melanogaster, UniProt Q9GNK5 201-242, looked up)
chain: B7 chain with E25A
B11: 6xHis-Sumo-PGRP-LE(80-127) WT (domain or fragment, D. melanogaster, UniProt Q9VXN9 80-127, looked up)
chain: DLMNSINSIQTLGNVNISNSTNVHIGNVTNINGNIQIIADGLTQNRRD
B12: 6xHis-Sumo-PGRP-LE(80-127) I116A (domain or fragment, D. melanogaster, UniProt Q9VXN9 80-127, looked up)
chain: B11 chain with I37A
B13: 6xHis-Sumo-PGRP-LE(80-127) S99A (domain or fragment, D. melanogaster, UniProt Q9VXN9 80-127, looked up)
chain: B11 chain with S20A
B14: 6xHis-Sumo-PGRP-LE(80-127) I96A (domain or fragment, D. melanogaster, UniProt Q9VXN9 80-127, looked up)
chain: B11 chain with I17A
B15: 6xHis-Sumo-PGRP-LE(80-127) I104A (domain or fragment, D. melanogaster, UniProt Q9VXN9 80-127, looked up)
chain: B11 chain with I25A

Molecular target: the molecule itself
Test: ThT fluorescence of amyloid polymerisation

Binding result, binds:
B1

Molecular target: the molecule itself
Test: SDD-AGE

Binding result, binds:
B2
B3
B4
B5
B6

Molecular target: the molecule itself
Test: SEC

Binding result, binds:
B7

Molecular target: the molecule itself
Test: X-ray diffraction from fibrils

Binding result, binds:
B8

Molecular target: the molecule itself
Test: SDD-AGE
Remark: another data set of the same source

Binding result, binds:
B9
B10
B11
B12
B13
B14
B15
